Assay results from article PMC2615687 (2008).
Blank lines part the entries; values can stand above or below the binder they belong to.

Columns and labels:
[1] = target: T1, myelin oligodendroglial glycoprotein (MOG) peptide on I-Ab (mouse); test: cytokine release
T1 peptide: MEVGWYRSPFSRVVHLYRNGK

[2] = target: T1, myelin oligodendroglial glycoprotein …; test: in vivo

binding result [1]: recognises
B1: 2MOG10 (TCR)
alpha TRAV14-2*01 TRAJ21*01 CDR3: CAAASRIYNVLYF
beta TRBV5*01 TRBJ2-5*01 CDR3: CASNGLGEEDTQYF

binding result [2]: recognises
B2: 1MOG23 (TCR)
alpha TRAV12D-2*02 TRAJ18*01 CDR3: CALSDRGSALGRLHF
beta TRBV19*01 TRBJ2-3*01 CDR3: CASSIADSSAETLYF

binding result [1]: recognises
B3: 1MOG9 (TCR)
alpha TRAV12D-3*01 TRAJ17*01 CDR3: CALSAANSAGNKLTF
beta TRBV13-2*01 TRBJ2-4*01 CDR3: CASGDWGGEDTLYF
